# Columns and labels:
# Cdh23 EC1 (WT) (mouse) [1] = target: Cdh23 EC1 (WT) (mouse) (UniProt Q99PF4); assay: AUC; sedimentation velocity, 142 000 g, 20 °C, pH 7.6, 25 mM HEPES, 50 mM NaCl, 25 mM KCl, 2 mM CaCl2; EC1-2 WT at 36 μM, EC1-2 E78K at 30 μM or ~440 μM, EC1 at 45 μM
# Cdh23 EC1 (WT) (mouse) [2] = target: Cdh23 EC1 (WT) (mouse) (UniProt Q99PF4); assay: single-molecule force spectroscopy (AFM); protein anchored by its C terminus to cantilever and to coverslip (sortagging, PEG 5 kDa spacers); seven loading rates, contact time 500 ms; Bell-Evans fit
# Cdh23 EC1 (WT) (mouse) [3] = target: Cdh23 EC1 (WT) (mouse) (UniProt Q99PF4); assay: AUC; sedimentation equilibrium at three rotor speeds, 20 °C, pH 7.6, 25 mM HEPES, 50 mM NaCl, 25 mM KCl, 2 mM CaCl2; global fit to monomer-dimer equilibrium (SEDPHAT); dimer to monomers
# Cdh23 EC1-2 (WT) (mouse) [4] = target: Cdh23 EC1-2 (WT) (mouse) (UniProt Q99PF4); assay: SEC; analytical SEC, Superdex 200 increase 10/300, 100 μM injected, 25 mM HEPES, 25 mM KCl, 50 mM NaCl, 2 mM CaCl2, pH 7.5; 4 °C
# Cdh23 EC1-2 (WT) (mouse) [5] = target: Cdh23 EC1-2 (WT) (mouse) (UniProt Q99PF4); assay: AUC; sedimentation velocity, 142 000 g, 20 °C, pH 7.6, 25 mM HEPES, 50 mM NaCl, 25 mM KCl, 2 mM CaCl2; EC1-2 WT at 36 μM, EC1-2 E78K at 30 μM or ~440 μM, EC1 at 45 μM
# Cdh23 EC1-2 (WT) (mouse) [6] = target: Cdh23 EC1-2 (WT) (mouse) (UniProt Q99PF4); assay: single-molecule force spectroscopy (AFM); protein anchored by its C terminus to cantilever and to coverslip (sortagging, PEG 5 kDa spacers); seven loading rates, contact time 500 ms; Bell-Evans fit
# Cdh23 EC1-2 (WT) (mouse) [7] = target: Cdh23 EC1-2 (WT) (mouse) (UniProt Q99PF4); assay: AUC; sedimentation equilibrium at three rotor speeds, 20 °C, pH 7.6, 25 mM HEPES, 50 mM NaCl, 25 mM KCl, 2 mM CaCl2; global fit to monomer-dimer equilibrium (SEDPHAT); dimer to monomers
# Cdh23 EC1-2 (WT) (mouse) [8] = target: Cdh23 EC1-2 (WT) (mouse) (UniProt Q99PF4); assay: SAXS; proteins at 10 mg·mL^-1 in solution, SAXSpace instrument; 10 °C (methods)
# Cdh23 EC1-3 (mouse) = assay: SEC; analytical SEC, Superdex 200 increase 10/300, 100 μM injected, 25 mM HEPES, 25 mM KCl, 50 mM NaCl, 2 mM CaCl2, pH 7.5; 4 °C
substance,measurement,setting,value
Cdh23 EC1 (WT) (from UniProt Q99PF4 24-124) (domain or fragment),stoichiometry N,Cdh23 EC1 (WT) (mouse) [1],2
same,probability of events,Cdh23 EC1 (WT) (mouse) [2],10%
same,Kd,Cdh23 EC1 (WT) (mouse) [3],52 µM
Cdh23 EC1-2 (WT) (from UniProt Q99PF4 24-228) (domain or fragment),stoichiometry N,Cdh23 EC1-2 (WT) (mouse) [4],2
same,stoichiometry N,Cdh23 EC1-2 (WT) (mouse) [5],2
same,"intrinsic lifetime at zero force (τ0), high-force distribution",Cdh23 EC1-2 (WT) (mouse) [6],1220 s
same,"intrinsic lifetime at zero force (τ0), low-force distribution",Cdh23 EC1-2 (WT) (mouse) [6],1.86 s
same,probability of events,Cdh23 EC1-2 (WT) (mouse) [6],6%
same,Kd,Cdh23 EC1-2 (WT) (mouse) [7],18 µM
same,stoichiometry N,Cdh23 EC1-2 (WT) (mouse) [8],2
Cdh23 EC1-3 (domain or fragment),stoichiometry N,Cdh23 EC1-3 (mouse),2
